In the DeepSol protein solubility set:

Experiment: soluble on expression in E. coli; label from the status in PepcDB or PDB records

| Sequence | soluble on expression in E. coli |
| --- | --- |
| MRPDVAFALPALAGGGVERVYLDLAGAMVKEGLRVDFVLARAEGPLLAQLPQGVRLWDLGVPRRLPLLRAYTPLGVYLAQARPRVVLPDWDYLDWVPLQAAWRSRTPFLWVLHNAPAYLKDVPNPVKRHTALWAARQTLKRAVNHPLGRVGAVSRGVAQAFARFGGVPEERICVLPNPIHVDRVRRLSHENVPLPATPYFLALGRLHPQKGFSLLLEAFSIFAKHHPDVHLLILGEGPERPRLEKLAHTLGLTSRVAFLGFVVNPYPYLRGAKALVITSRYEGFSMVALEALALRVPVVAVESEGGLLEALGDGRFGIVTPRSPQALAHAMERVLSDGFAWDETALKDHLNQYSPEAALRSYMSVLEEIWR | soluble |
| MRPILLPDPPSLSTGVPDIFEQGGSHNVVRRAVVIGNGFPGSENQCIGLVRALGLSDNHLLYVFSLLGLSLSRSGNFILFSTSLECMNVQRRRNYLNFYGNNELRIESLVEHDAGAITEFRLQGTLRVTRPKGGLNEWLHWLPVGFHKKLDFILRHIYLYSRLMLGSKQSKYISSVPSENGGNVGLASILEADVKGIVNLARQTYEKDGPLIVIACGRDTISIASSIRRLASENVFVVQIQHPRSHLNRFDMVITPRHDYYPLTLEAQEQVPRFMRSWITPREPPQDHVVLTTGALHQIDYASLRKAASAWHDEFAALPKPLVVVNIGWPRSNCRYGADLAKQLTDSLLNVLATCGSVRITLSYKTPAKVSRVIFKELGDNPKVYIWNGQEPNPYMGHLAWGDAFVVTADSVSLISEACSTGKPVYVVGADHCKWKIAEFQKSLRERGVVRSFTGFEDMSESWSYPPLNDTAEAATRIRRELAARGWSLRS | soluble |
| MRQIVPKVVVVGAGMGGLASAIRLARAGCEVTLLEAREAPGGRMRTLPSVAGPVDAGPTVLTLREVFDDIFEVCGQKLDHHLTLLPQPLLARHWWLDGSTLDLTTDLEANVEAVAAFAGAREARAFRRFHDLSARLYDAFDRPMMRAARPDLRAIATGALKAPRTWPALLPGMTLDRLLRLFFRDRRLRQLFGRYATYVGGTPYGAPGVLALIWAAEARGVWAIEGGMHRLALALARLADDQGVRLRYGAPVARILRQGGRATGVQLADGRTLPADHIVFNGDPAALLAGCLGDGPQDAVPEDRIHPRSLSAWVWSYAARASGPPLVHHNVFFADDPRREFGPIAAGQMPEDATLYICAEDRSGGQLPDGPERFEIIMNGPPGRPAKPEDFAQCRSRTFDRLRQFGLTFDPVPGETSLTAPSGFASLFPASQGSIYGLSPHGALASLKRPLARTALPGLWLAGGGAHPGAGVPMAALSGRHAAEAILADLASRSRLEHHHHHH | not soluble |
| MRRAAIFFFYDERGQVDDYIFYLLEKLRPFVETIIFVSNGEISQSSEASLRSTVDETIIRENTGFDVGAYRDGLEFIGYDKLGDYDEILLLNHTFYGPVFPFSEMFSEMERRACDFWGISDHKEVSPNPFTGAGVLPRHLNSHFIAVRKAMLESIAFRNYWERMPKITDYAESVLLHESRFTGFFENLGYKSETYLDSDKYNSAYPVMIDVDQIYNDRSPILKRRLFFNDPTFLDKNAVDLPRALRVLKETSDYDLNLIWRNVLRSSDLRTLNTNAALMSVLPDKRIKGDGAAADYGKIAVCAHIYYTDMLDEILGLTGNIPVPYDFIATTNTPEKKAEIETALANRPGVKNVIVRVVEQNRGRDMSSLFISLRDLLVDDRYDLVCRLHTKKSPQVQSSMGNLFKRHMVDNLLNSRGYVHNVLDMFHDNPSVGLAIPPIFHISYPTMGFSWFANKPKVEETARLLNINVKFDENTPVAAYGTMFWFRPRALRKMFEHKWKWEEFNAEPDHVDGGFAHALERLIAYAVQNAGYTTQHIMCAHQAEHNYTMLEFKLQKLASFMPSGDFPLQCHMVSEWRKGGYPLGSHVSATPAPMPTSVKHSLAELNLAVKSSLRFRAPILFRALRPIYRGTRAILKPNSRRSGGLEHHHHHH | soluble |
| MRRFDCTVVAIHDDASLGCRLPGANKALRIQLNAVELPAAEPWRRRAREALEDMLLGKSATIREQGRDARFRILGAAWVTPADCPTCGHTLDAGLALLTIGLASWRDAPDSGQTAEARGQYRFAEEEARARKAGQWRP | soluble |
| MRRIILIFSLLTLSLMAFGEEIKVDRSVEESITKDYDQDGVYSSYEKALRRAQESVYVKLPEKRGYWYTILDRVKAEEEELMPEEINRMRRR | not soluble |
| MRRNRFLAPLLVAASLLATAPAHGQPAPAAVLASDEAQRIALDAYVYVYPLVVMDLSRRQDTGGKGPGHAPANTFAHERRLPQADFRRLPRPNFDMLRSSAWLDLSTGPVVISTPETHGRLYTLSVLDMWTDIFAVLGKRTTGTARGNHAIVPPGWTGVLPRGMHRIDAPTAQVQARLYVQTGGSSEYPGVHAVQDGFILTPLAEWNQQAQSVRLRSDPDLDALTPAQQQVEGMNAEDYFGYAAELLRKHAPHATDQPMLARLRRLGIAPGQQLAFARLPTTVQQALRHAVRNGPQALRDSLPATGSLANGWQADADGAGVYGNAYLRRAVTTQARLGASLPEDVTAMLLLADAAGRPLEGGQRYVLRFEADQLPPAGALWSLNAYDAQGYPVGNGFNRYALGDRDPVRYNPDGSLELYLQRDPPGPDDQANWLPTGEGAPGVILRIYLPQASVLAGRWVPPAARRVEAADDAAALEHHHHHH | not soluble |
| MRRRRVLLLLLSTTTFLRVSTAQQDEPKASVVEVQTKLGTVRGTESDHGNKRVRSFLGVPFAEPPINEHRFKKPTPARPWNGTISANTLSPACFQGRDSYDPTFWGSEMWNANTPVSEDCLYVNIWAPADAYNLTVLVWLFGGGFWYGSPSLLLYDGKELATRGNVIVVNINYRVGPFGYLFLDHEDVPGNMGMLDQQLALYWIRDHIFSFGGNPARISLVGESAGAASIVAHLIAPASKGLFQNGILQSGSLDNKWSMDSPKRAKQKSTALADLVGCNQTKITDQTACLRNTPAQLLIDNIWNVGLNFLEFPFAIVSKDQNFFKHLDGFIALREGTYSTDVNLMFGINHDEGNFWNIYNLAKFFDKQSVKPGLDRDEFHECVDTAFAVQPELVRTAAKYVYSDPKCTDPKKKTDFYTEQVNQMVGDYFFTCDSIWFAHNYPKMAGNQSNVFVYYFDQPSSANPWPKWTGVMHGYEIEYVFGVPLHNTTAGYTKEEMDVSEKVIDFWTTFANTGVPSLRKRAVGTTQKIKWDRYDGTDHTTWMNIKTGSFRMIQEIKKVECDLWRNAKDMEYSAYKEELATTSSSTLTQYTIYLILLSAFQLVFNFF | not soluble |
| MRSALSLKPSNGNAAKSQAVNNKNVIKNAPLGGKLTRQIGTSNLLQQALPSKKIDESPIIKIDAKDSFKVFEDQEPEKENSSENVDATEKDSNVIPAEDNNMIHELERKMEEKSRAEKLKFKFMQTRDNSDITSRFSEPPSEFSVLCDDDDCDKVSVASSTFTTSVRATFSSFHFDENQRKKEFGKEEAVKKIQKKAAKEARDDSMFSSEEFFPDIIKYMLHRQTKNRASHECFDIQSQVNEEMRTILIDWFSDVVKEYNFQKETFHLAVSLVDRALSMFNIDKMRFQLVGTTSMMIAVKYEEIFPPEIEDFALITDNTYRVPDILLMERFLLGKFDFVVAMPTSSWFGTCFAKRMNFTKKMRNTVHYLLELSLIDVHFLRYRPSDIAAAACCFANLQADVESWPQKMVDDTGISTEDFVDVLRDLHRMYLNASTADFKSIFYNYSETAQMEVALLPAPTDKLRSMFPSIFVTAPKSSNDSSSPQ | not soluble |
| MRSDTSVEPEGANFIAEFFGHRVYPEVVSTEAARNDQATGTCPFLTAAKLVETSCVKAETSRGVCVVNTAVDNERYDWLVCPNRALDPLFMSAASRKLFGYGPTEPLQFIAAPTLADQAVRDGIREWLDRGVHVVAYFQEKLGGELSISKTDSSPEFSFDWTLAEVESIYPVPKIKRYGVLEIQTMDFHGSYKHAVGAIDIALVEGIDFHGWLPTPAGRAALSKKMEGPNLSNVFKRTFYQMAYKFALSGHQRCAGTGFAIPQSVWKSWLRHLANPTLIDNGDGTFSLGDTRNDSENAWIFVFELDPDTDASPRPLAPHLEIRVNVDTLIDLALRESPRAALGPSGPVATFTDKVEARMLRFWPKTRRRRSTTPGGQRGLFDA | soluble |
| MRSLADFEFNKAPLCEGMILACEAIRRDFPSQDVYDELERLVSLAKEEISQLLPLEEQLEKLIALFYGDWGFKASRGVYRLSDALWLDQVLKNRQGSAVSLGAVLLWVANRLDLPLLPVIFPTQLILRIECPDGEIWLINPFNGESLSEHMLDGWLKGNISPSAELFYEDLDEADNIEVIRKLLDTLKASLMEENQMELALRTSEALLQFNPEDPYEIRDRGLIYAQLDCEHVALNDLSYFVERCPEDPISEMIRAQINNIAHKHIVLHMAGDPLEHHHHHH | soluble |
